Target: recombinant Ebola virus (EBOV) glycoprotein (Zaire ebolavirus (EBOV)) (UniProt Q05320)
Test: SEC

recombinant Ebola virus (EBOV) glycoprotein (from UniProt Q05320) (natural protein)
stoichiometry N: 3
